These results are taken from publication PMC9692976, “Characterization of a Glycolipid Synthase Producing α-Galactosylceramide in Bacteroides fragilis” (International Journal of Molecular Sciences, 2022).

Data set [1] concerns O=c1ccn([C@@H]2O[C@H](COP(=O)(O)OP(=O)(O)O[C@H]3O[C@H](CO)[C@H](O)[C@H](O)[C@H]3O)[C@@H](O)[C@H]2O)c(=O)[nH]1. Kind of data set: purified protein. To be noted: 25 µM Cer-NBD with equimolar BSA, pH 7.5, 37 °C, fit with substrate inhibition.
Data set [2] deals with CCCCCCCCCCCCC/C=C/[C@@H](O)[C@H](CO)NC(=O)CCCCCNc1ccc([N+](=O)[O-])c2nonc12. Kind of data set: purified protein. To be noted: 1.25 mM UDP-Gal, Cer-NBD solubilized with equimolar BSA, pH 7.5, 37 °C, fit with substrate inhibition, labelled compound.
Data set [3] deals with T1, αGalCer_GT (BF9343_3149; αCerGal_GT) (Bacteroides fragilis, UniProt A0A380YRQ3).
T1 construct: full length, SUMO fusion at N-terminus and Strep-tag (C-terminal in Results; Methods also says N-terminal Strep-tag), tags kept, codon-optimised gene, E. coli BL21(DE3) Star, StrepTrap purified
As to the kind of experiment: HPLC with fluorescence detection of αGalCer-NBD, initial rates. It counts as biochemical. The note with it: substrate inhibition constant; second site; 1.25 mM UDP-Gal, Cer-NBD solubilized with equimolar BSA, pH 7.5, 37 °C; labelled compound.

T1 sequence (A0A380YRQ3 entry or part of it): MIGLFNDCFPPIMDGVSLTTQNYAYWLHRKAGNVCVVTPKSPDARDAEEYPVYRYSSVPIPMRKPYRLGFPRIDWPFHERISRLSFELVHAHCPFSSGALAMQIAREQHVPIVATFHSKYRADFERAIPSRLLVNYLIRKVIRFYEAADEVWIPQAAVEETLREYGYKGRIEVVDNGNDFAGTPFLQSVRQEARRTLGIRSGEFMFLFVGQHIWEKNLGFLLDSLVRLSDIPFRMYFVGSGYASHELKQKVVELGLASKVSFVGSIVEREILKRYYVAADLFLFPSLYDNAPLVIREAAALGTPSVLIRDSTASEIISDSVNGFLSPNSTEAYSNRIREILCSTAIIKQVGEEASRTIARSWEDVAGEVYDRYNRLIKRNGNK

For “αGalCer_GT (BF9343_3149; αCerGal_GT) (Bacteroides fragilis NCTC 9343)”, the Km in data set [1] worked out at 218 µM; in data set [2] it was 4.6 µM.
For `CCCCCCCCCCCCC/C=C/[C@@H](O)[C@H](CO)NC(=O)CCCCCNc1ccc([N+](=O)[O-])c2nonc12` [Cer-NBD, N-[6-[(7-nitro-2-1,3-benzoxadiazol-4-yl)amino]hexanoyl]-D-erythro-sphin-gosine], the KI in data set [3] is recorded as 161 µM.
